Source: the supplement of paper PMC10567573

B1: KIAA0774 (parent)
chain: FEDEVKRLGWQQQAELQELEERLQ
B2: SCARA5 (parent)
chain: VTEDLRLKDWEHSIALRNISLAKG

Variants of: B1
Assay: protein stability index of a GFP-peptide fusion (GPS, HEK-293T) (PSI 1-6); higher = more stable
Conditions: c terminus: a fixed tail appended
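Note: lentivirally expressed fusions sorted by FACS into six bins by GFP to DsRed ratio, PSI derived from sequencing read proportions per bin multiplied by bin number.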

Protein stability index of substitutions, site by site:
R22: Q 4.95, K 3.85, F 4.62, P 5.33, H 4.88, G 5.26, M 4.04, Y 4.24, D 5.9, W 4.31, N 5.69, E 5.78, C 4.48, V 3.77, T 4.83, I 4.06, A 4.99, S 5.01, L 4.13
L23: E 4.65, V 4.65, A 4.08, D 5.21, W 3.88, H 4.53, T 4.84, F 4.09, P 5.48, R 4.58, G 4.58, C 4.14, Q 4.05, N 4.42, Y 4.51, M 4.03, S 4.91, K 4.16, I 3.97
E21: V 4.14, T 4.69, Y 3.88, S 4.17, W 2.91
Q24: K 4.73, G 4.62, D 3.98, L 3.48, V 3.12, F 3.28, C 4.22, M 3.92, E 3.8, R 4.14, P 4.96, Y 3.82, S 4.01, W 3.49, N 4.48, I 3.41, A 3.81, H 3.93, T 3.99

Variants of: B2
Assay: as above
Conditions: c terminus: a fixed tail appended

Protein stability index: each site, then its substitutions
L7: H 3.69, C 3.39, Q 3.63, K 3.91, A 3.35, S 3.84, W 2.98, M 3.45, Y 3.2, G 3.67, V 3.71, E 4.21, T 3.39, F 3.75, I 3.13, N 3.83, P 3.89, R 2.81, D 3.89
W10: R 4.45, A 4.28, V 4.14, I 3.41, F 3.12, K 4.22, T 4.26, N 4.26, D 4.67, P 4.41, C 4.11, H 4.37, L 3.55, S 4.39, Q 4.29, E 4.62, G 4.63, M 3.67, Y 3.62
D4: F 2.03, W 2.05, Q 3.42, N 3.33, A 2.87, P 3.41, V 2.81, C 2.53, Y 2.01, R 3.16, E 3.45, T 3.03, H 3.43, L 2.26, I 2.35, M 2.45, S 2.76, G 3.04, K 2.61
D9: M 1.96, C 3.09, L 2.64, Y 2.69, K 2.82, E 3.17, R 3.14, W 2.22, V 3.01, A 2.94, G 2.29, N 3.12, S 3.17, H 2.71, P 3.37, T 3.18, Q 3.31, F 2.44, I 2.27
A15: G 3.58, F 2.86, E 3.14, D 4.2, H 3.37, C 3.13
K8: A 3.43, W 2.57, M 2.77, H 3.44, D 3.62, V 2.82, G 3.18, I 2.87, F 2.85, L 3.04, P 3.48, R 3.11, Y 2.83, T 3.27, Q 2.91, S 3.28, N 3.48, E 3.49, C 3.25
S13: I 2.85, N 2.93, P 3.25, V 3.37, E 3.58, F 2.64, L 2.93, A 3.37, M 2.81, C 3.08, K 3.23, W 2.57, H 3.1, G 3.01, R 3.4, D 3.65, Y 2.88, Q 3.68, T 3.41
L5: A 3.92, I 3.63, Q 3.73, V 3.65, C 3.34, S 3.89, Y 3.34, R 3.74, W 3.35, N 3.83, H 3.91, E 4.19, T 3.68, M 3.46, D 4.14, P 3.77, K 4.14, G 3.93, F 2.97
V1: C 2.72, M 3.5, I 3.54, Q 4.04, G 3.15, Y 2.83, R 3.39, E 3.98, K 3.34, L 3.26, W 3.42, T 3.89, N 3.98, H 3.89, P 3.88, A 3.77, D 3.75, F 2.81, S 3.74
E11: D 3.33, I 1.91, F 2.24, W 2.55, Q 3.16, T 2.75, N 3.56, G 2.87, P 2.92, R 2.91, H 2.72, M 2.46, L 2.74, C 2.47, K 3.3, Y 2.57, S 2.98, A 2.51, V 1.8
H12: Y 2.76, M 2.77, P 3.29, E 3.84, S 3.88, K 3.61, R 3.51, D 3.75, L 2.38, T 3.51, I 2.4, V 2.44, C 2.62, Q 3.43, N 3.7, G 3.63, A 3.2, W 2.25, F 2.28
R6: N 3.22, P 3.26, V 3.95, A 3.63, W 2.62, D 3.73, I 3.15, G 3.53, L 3.29, M 2.99, S 3.27, T 3.75, K 3.66, E 3.58, Y 2.85, Q 3.79, H 3.62, C 3.86, F 3.56
E3: P 3.39, Y 2.44, L 1.37, H 3.03, W 1.58, V 1.69, G 2.94, M 2.75, C 2.25, K 3, N 3.03, Q 2.63, T 2.71, A 1.74, R 2.96, D 3.68, F 1.85, S 3.16, I 2.26
I14: A 4.04, N 3.96, E 4.03, K 3.86, T 3.59, Q 3.91, S 4.22, C 3.26, D 4.26, H 3.47, Y 3.37, W 3.29, V 3.75, P 4.76, M 3.4, L 3.3, F 3.21, G 4.17, R 3.64
T2: R 3.21, S 3.11, F 2.61, L 2.49, P 3.69, W 2.46, I 2.5, N 3.85, K 3.65, G 3.26, Q 3.58, M 3.38, V 3.48, H 3.52, A 3.21, D 3.8, Y 3.17, C 3.12, E 4.15
